{
  "source": "patent US20220105194A1",
  "about": "“CONJUGATE COMPRISING LIGAND, SPACER, PEPTIDE LINKER, AND BIOMOLECULE” (ASTELLAS PHARMA INC., priority 2019, published 2022)",
  "molecules": {"B1": {"name": "[Gd/DOTA-[2,5-(1,2,3,4-tetrahydroisoquinoline)]-C(═O)-Met-Gly-Lys*-Z2(#N)]p-Fab^2 (conjugate)", "heavy": "EVQLVESGGGLVQPGGSLRLSCAASGFNIRDTYMHWVRQAPGKGLEWVARIDPANGNSRYVPKFQGRFTISADTSRNTAYLQMNSLRAEDTAVYYCAPFGYYVSDYAMAYWGQGTLVTVSSASTKGPSVFPLAPSSKSTSGGTAALGCLVKDYFPEPVTVSWNSGALTSGVHTFPAVLQSSGLYSLSSVVTVPSSSLGTQTYICNVNHKPSNTKVDKKVEPKSCD", "light": "DIQLTQSPSSLSASVGDRVTITCRAGESVDIFGVGFLHWYQQKPGKAPKLLIYRASNLESGIPSRFSGSGSRTDFTLTISSLQPEDFATYYCQQTNEDPYTFGQGTKVEIKRTVAAPSVFIFPPSDEQLKSGTASVVCLLNNFYPREAKVQWKVDNALQSGNSQESVTEQDSKDSTYSLSSTLTLSKADYEKHKVYACEVTHQGLSSPVTKSFNRGEC"}, "B2": {"name": "[Gd/DOTA]p-Fab^2 (conjugate)", "heavy": "B1 heavy", "light": "B1 light"}, "B3": {"name": "P10-2: anti-human MUC1 antibody Fab fragment disclosed in International Publication WO2018/092885 (antibody)", "heavy": "QVQLVQSGAEVKKPGASVKVSCKASGYTFTNYGLSWVRQAPGQGLEWMGENHPGSGIIYHNEKFRGRVTLTADRSTSTAYMELSSLRSEDTAVYYCARSSGTRGFDYWGQGTLVTVSSASTKGPSVFPLAPSSKSTSGGTAALGCLVKDYFPEPVTVSWNSGALTSGVHTFPAVLQSSGLYSLSSVVTVPSSSLGTQTYICNVNHKPSNTKVDKKVEPKSCD", "light": "DVVMTQTPLSLSVTPGQPASISCRSSQSIVHSNGNTYLEWYLQKPGQSPQLLIYRVSNRFSGVPDRFSGSGSGTDFTLKISRVEAEDVGVYYCFQGSHGPWTFGQGTKLEIKRTVAAPSVFIFPPSDEQLKSGTASVVCLLNNFYPREAKVQWKVDNALQSGNSQESVTEQDSKDSTYSLSSTLTLSKADYEKHKVYACEVTHQGLSSPVTKSFNRGEC"}, "B4": {"name": "Ex-No 108 (conjugate)", "heavy": "B3 heavy", "light": "B3 light"}, "B5": {"name": "[Gd/DOTA-NH—CH2-(1,4-Ph)-NH—C(═O)-Met-Ile-NH—(CH2)2-(A-3)]p-Fab^5 (conjugate)", "heavy": "B3 heavy", "light": "B3 light"}, "B6": {"name": "[Gd/DOTA-NH—CH2-(1,4-Ph)-NH—C(═O)-Met-Ile-NH—(CH2)2-(A-4 and/or A-5)]p-Fab^5 (conjugate)", "heavy": "B3 heavy", "light": "B3 light"}, "B7": {"name": "[Gd/DOTA-NH—CH2-(1,4-Ph)-NH—C(═O)-Met-Ile-NH—(CH2)2—Z1(#S)]p-Fab^5 (conjugate)", "heavy": "B3 heavy", "light": "B3 light"}},
  "key": {"[1]": {"parameters": "species or system mice (BALB/c nu/nu)", "conditions": "mouse, in vivo", "protocol": "(§1) A Gd-labeled conjugate of the conjugate containing a peptide linker produced in one of the above Examples was administered from the tail vein of tumor-bearing mice so that the protein mass was 0.02 mg (100 μL) per animal. As the tumor-bearing mice used in the present Example, mice (BALB/c nu/nu) that were in a tumor-bearing state brought about by transplanting human colorectal cancer cell line LS174T cells (ATCC(registered trademark); CL-188) at 2.0 to 5.0×10^6 cells/mouse subcutaneously on the back before administration of the sample were used. 24 hours after administration of the sample, the mice were sacrificed, the kidneys and the tumor were removed, and the amounts of Gd in the kidneys and in the tumor were measured using ICP-MS. The present test was carried out in 3 cases in each group, and the mean value of the 3 cases was calculated. The amount of Gd contained per kidney after administration was shown as a percentage of the amount of Gd administered (% of dose/tissue), and the amount of Gd contained per g of tumor tissue was shown as a percentage of the total amount of Gd administered (% of dose/g)."}, "[2]": {"assay": "Example 4-1: kidney accumulation evaluation test of Gd-labeled conjugates (normal mice)", "conditions": "about 24 hours, relative to control conjugate Ex-No 47", "protocol": "(§2) A Gd-labeled conjugate of the conjugate containing a peptide linker produced in one of the above Examples was administered from the tail vein of mice (BALB/c or BALB/c nu/nu) so that the protein mass was 0.02 mg (100 μL) per animal. After about 24 hours, the mice were sacrificed and the kidneys were removed, and the amount of Gd in the kidneys was measured using ICP-MS. The present test was carried out in 3 cases in each group, the mean value of the 3 cases was calculated, and the amount of Gd contained per kidney after administration was shown as a percentage (% of dose/tissue) of the total amount of Gd administered.\n(§3) Based on the percentage of the control conjugate (% of dose/tissue), the proportion of decrease in the amount of Gd contained in the kidneys of each of the conjugates having a peptide linker was determined and shown in Table 28."}, "[3]": {"tested_on": "human colorectal cancer cell line LS174T cells", "assay": "Example 4-4: amount of tumor accumulation of Gd-labeled conjugates (tumor-bearing mice)", "conditions": "tail vein, 0.02 mg protein per animal, 24 hours, ICP-MS, mean of 3 cases", "protocol": "as §1"}, "[4]": {"conditions": "mouse, in vivo", "protocol": "as §2, §3"}, "[5]": {"conditions": "mouse, in vivo", "remark": "listed apart in the source", "protocol": "as §2"}, "[6]": {"parameters": "species or system mice (BALB/c or BALB/c nu/nu)", "conditions": "mouse, in vivo", "protocol": "as §2"}, "[7]": {"target": "human cancer-specific MUC1", "sequence (P15941 136-155 limits assumed)": "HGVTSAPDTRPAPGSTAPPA", "assay": "Example 6-1: ELISA binding activity of anti-human MUC1 antibody Fab^5 fragment conjugates", "conditions": "immobilized human cancer-specific MUC1 peptide, single runs of P10-2, read-out: EC50 value (nM) for each of 3 runs"}, "[8]": {"target": "human cancer-specific MUC1", "assay": "Example 6-2: ELISA binding activity of anti-human MUC1 antibody Fab^5 fragment conjugates", "conditions": "immobilized human cancer-specific MUC1 peptide", "experimental": "Each anti-human MUC1 antibody Fab^5 fragment conjugate prepared by the method of Example 5 was subjected to ELISA to evaluate the binding activity thereof to human cancer-specific MUC1. In the present test, 20×PBS/Tween 20 Buffer (Thermo Fisher Scientific Inc., 28352) diluted 20-fold with distilled water was used as a wash liquid. In addition, for bovine serum albumin (BSA) used in the present test, 30% Bovine Serum Albumin solution (Sigma-Aldrich, Inc., A9576-50ML) was added in an appropriate proportion for use. A human cancer-specific MUC1 peptide (PTL 1) at 0.5 μmol/L was added to a Nunc MaxiSorp White 384 plate (Nunc, 460372) at 30 μL per well, and the plate was incubated overnight at 4° C. for immobilization. The MUC1 peptide was removed by reverse centrifugation, and then blocking was carried out by adding a PBS/Tween 20 buffer containing 5.0% BSA. […] The substrate was incubated at room temperature for 15 minutes, and then a signal value thereof was measured using an Envision counter (PerkinElmer, Inc.).\nThe test for each antibody was carried out in duplicate, and the EC50 value was calculated using a 4-parameter logistic curve model."}, "[9]": {"parameters": "species or system mice (BALB/c nu/nu)", "conditions": "mouse, in vivo", "remark": "listed apart in the source", "protocol": "(§4) A Gd-labeled conjugate of the conjugate containing a peptide linker produced in one of the above Examples was administered from the tail vein of the tumor-bearing mice so that the protein mass was 0.02 mg (100 μL) per animal. As the tumor-bearing mice used in the present Example, mice (BALB/c nu/nu) that were in a tumor-bearing state brought about by transplanting human breast cancer cell line MDA-MB-468 (ATCC(registered trademark); HTB-132) at 5.0×10^6 cells/mouse subcutaneously on the back before administration of the sample were used. 24 hours after administration of the sample, the mice were sacrificed, the kidneys and the tumor were removed, and the amounts of Gd in the kidneys and in the tumor were measured using ICP-MS. The present test was carried out in 3 cases in each group, and the mean value of the 3 cases was calculated. The amount of Gd contained per kidney after administration was shown as a percentage of the amount of Gd administered (% of dose/tissue), and the amount of Gd contained per g of tumor tissue was shown as a percentage of the total amount of Gd administered (% of dose/g)."}, "[10]": {"tested_on": "human breast cancer cell line MDA-MB-468", "assay": "Example 8: amount of tumor accumulation of Gd-labeled conjugates (tumor-bearing mice)", "conditions": "MDA-MB-468 tumor-bearing mice, 24 hours; control conjugate Ex-No. 108, mean of 2 runs", "protocol": "as §4"}, "[11]": {"parameters": "species or system mice (BALB/c or BALB/c nu/nu)", "conditions": "mouse, in vivo", "remark": "listed apart in the source", "protocol": "as §2\nBased on the amount of Gd contained in the kidneys of the control conjugate, the proportion of decrease in the amount of Gd contained in the kidneys of each of the conjugates having a peptide linker was determined."}},
  "note": "Like-named read-outs stand apart in the source and are kept apart here.",
  "data": [
    {"molecule": "B1", "values": [
      {"measurement": "Renal residual amount (cancer-bearing mice), % of dose/tissue", "setting": "[1]", "value": "7.30 % of dose/tissue"},
      {"measurement": "Renal residual amount (cancer-bearing mice), Proportion of decrease (%)", "setting": "[1]", "value": 71.74, "unit": "%"},
      {"measurement": "Proportion of decrease (%) in the amount of Gd contained in the kidneys", "setting": "[2]", "value": 82.9, "unit": "%"},
      {"measurement": "Amount of tumor accumulation (tumor-bearing mice), % of dose/g", "setting": "[3]", "value": "4.53 % of dose/g"}
    ]},
    {"molecule": "B2", "values": [
      {"measurement": "Geometric mean (% of dose/tissue)", "setting": "[4]", "value": "31.0 % of dose/tissue"},
      {"measurement": "Renal residual amount (% of dose/tissue), Mean", "setting": "[1]", "value": "25.83 % of dose/tissue"},
      {"measurement": "Renal residual amount (normal mice), % of dose/tissue", "setting": "[5]", "value": "31.30 % of dose/tissue"},
      {"measurement": "Renal residual amount (% of dose/tissue), Mean", "setting": "[6]", "value": "29.33 % of dose/tissue"}
    ]},
    {"molecule": "B3", "values": [
      {"measurement": "EC50", "setting": "[7]", "value": 0.06, "unit": "nM"},
      {"measurement": "EC50", "setting": "[8]; single runs of P10-2, read-out: EC50 value (nM) for each of 3 runs", "value": 0.06, "unit": "nM"}
    ]},
    {"molecule": "B4", "values": [
      {"measurement": "Renal residual amount (% of dose/tissue), Mean", "setting": "[9]", "value": "34.67 % of dose/tissue"},
      {"measurement": "Amount of tumor accumulation (% of dose/g), Mean", "setting": "[10]", "value": "0.92 % of dose/g"},
      {"measurement": "Renal residual amount (normal mice), Mean (% of dose/tissue)", "setting": "[11]", "value": "33.00 % of dose/tissue"}
    ]},
    {"molecule": "B5", "values": [
      {"measurement": "Renal residual amount (normal mice), % of dose/tissue", "setting": "[11]", "value": "2.80 % of dose/tissue"}
    ]},
    {"molecule": "B6", "values": [
      {"measurement": "Renal residual amount (normal mice), % of dose/tissue", "setting": "[11]", "value": "2.30 % of dose/tissue"}
    ]},
    {"molecule": "B7", "values": [
      {"measurement": "EC50", "setting": "[8]; run in duplicate, read-out: EC50", "value": 0.09, "unit": "nM"}
    ]}
  ]
}
